These results are taken from patent publication US20120204275A1 (NEOTOPE BIOSCIENCES, published 2012).

In this assay the target is T1, full-length ApoE4 (human, UniProt P02649 19-317).
T1 construct: In cell lysate; P02649 is printed for the E3 allele (residues 19-317); also called ApoE4(1-299)
T1 chain: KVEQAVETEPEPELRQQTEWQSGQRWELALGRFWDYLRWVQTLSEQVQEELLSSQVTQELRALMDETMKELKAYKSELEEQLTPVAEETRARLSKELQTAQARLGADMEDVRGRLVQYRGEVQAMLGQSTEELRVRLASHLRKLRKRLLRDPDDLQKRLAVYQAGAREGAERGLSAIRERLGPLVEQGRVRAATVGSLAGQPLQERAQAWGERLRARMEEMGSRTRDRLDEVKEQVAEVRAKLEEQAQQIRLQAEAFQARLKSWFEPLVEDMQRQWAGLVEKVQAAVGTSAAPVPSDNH
Briefly: immunoprecipitation from cell lysate, western blot with 1F9. Here is the method: Cell Lysates preparation: Media was aspirated. Cells were treated for desired time by adding fresh media containing regulator. Media was then removed and cells rinsed with ice-cold PBS to harvest cells under nondenaturing conditions. PBS was removed, and 0.5 ml ice-cold 1× cell lysis buffer was added to each plate (10 cm). The plates were incubated on ice for 5 minutes. Cells were scraped off the plates and transferred to microcentrifuge tubes. The cells were kept on ice, and sonicated on ice three times for 5 seconds each. The samples were then microcentrifuged for 10 minutes at 14,000×g, 4° C., and the supernatant was transferred to a new tube. When necessary, lysate was stored at −80° C.
The membrane was then incubated with primary antibody anti-ApoE4 antibody 1F9 (MBL International Corp., Cat# M067-3) in 10 ml primary antibody dilution buffer with gentle agitation overnight at 4° C. […]
Lysates of full-length ApoE3, full-length ApoE4, ApoE3(1-272), and ApoE4(1-272) lysates were detected using Western blot with 1 μg/ml 1F9 (Medical and Biological Laboratories) (Lanes 1-4; FIG. 3). […] The m15G8 immunoprecipitation were then detected using Western blot with 1 μg/ml 1F9 (Lanes 5-8; FIG. 3). […]
In general terms: A western blot detects proteins with antibodies after separation by electrophoresis.

B1: mouse monoclonal antibody 15G8 (antibody, V domains shown)
VH: EVKLVESGGGLVKPGGSLKLSCAASGFTFSFYAMSWVRQTPEKRLEWVASLSRGGSTYYPDSVKGRFTISRDNARNTLYLQMSSLRSEDTAMFYCAREGATALYAMDYWGQGTSVTVSS
VL: DVLMTQTPLSLPVSLGDQASISCRSSQSIVHSNGNTYLQWYLQKPGQSPKLLIYKVSNRFSGVPDRFSGSGSGTDFTLKISRVEAEDLGIYYCFQGSHVPWTFGGGTKLEIK
notes: Same variable regions as 12C12 and 15E10; also called m15G8; mouse 15G8
As for B1, the binding result is reported as “no binding”.
